{
  "source": "patent US20230257726A1",
  "about": "(published 2023)",
  "binders": {"B1": {"name": "Human coronavirus NL63 (HCoV-NL63) spike RBD (ligand)", "chain": "QHTDINFTATASFGGSCYVCKPHQVNISLNGNTSVCVRTSHFSIRYIYNRVKSGSPGDSSWHIYLKSGTCPFSFSKLNNFQKFKTICFSTVEVPGSCNFPLEATWHYTSYTIVGALYVTWSEGNSITGVPYPVSGI"}},
  "target": "Wild-type ACE2(740)-Fc (human)",
  "sequence (chain, as listed by the source)": "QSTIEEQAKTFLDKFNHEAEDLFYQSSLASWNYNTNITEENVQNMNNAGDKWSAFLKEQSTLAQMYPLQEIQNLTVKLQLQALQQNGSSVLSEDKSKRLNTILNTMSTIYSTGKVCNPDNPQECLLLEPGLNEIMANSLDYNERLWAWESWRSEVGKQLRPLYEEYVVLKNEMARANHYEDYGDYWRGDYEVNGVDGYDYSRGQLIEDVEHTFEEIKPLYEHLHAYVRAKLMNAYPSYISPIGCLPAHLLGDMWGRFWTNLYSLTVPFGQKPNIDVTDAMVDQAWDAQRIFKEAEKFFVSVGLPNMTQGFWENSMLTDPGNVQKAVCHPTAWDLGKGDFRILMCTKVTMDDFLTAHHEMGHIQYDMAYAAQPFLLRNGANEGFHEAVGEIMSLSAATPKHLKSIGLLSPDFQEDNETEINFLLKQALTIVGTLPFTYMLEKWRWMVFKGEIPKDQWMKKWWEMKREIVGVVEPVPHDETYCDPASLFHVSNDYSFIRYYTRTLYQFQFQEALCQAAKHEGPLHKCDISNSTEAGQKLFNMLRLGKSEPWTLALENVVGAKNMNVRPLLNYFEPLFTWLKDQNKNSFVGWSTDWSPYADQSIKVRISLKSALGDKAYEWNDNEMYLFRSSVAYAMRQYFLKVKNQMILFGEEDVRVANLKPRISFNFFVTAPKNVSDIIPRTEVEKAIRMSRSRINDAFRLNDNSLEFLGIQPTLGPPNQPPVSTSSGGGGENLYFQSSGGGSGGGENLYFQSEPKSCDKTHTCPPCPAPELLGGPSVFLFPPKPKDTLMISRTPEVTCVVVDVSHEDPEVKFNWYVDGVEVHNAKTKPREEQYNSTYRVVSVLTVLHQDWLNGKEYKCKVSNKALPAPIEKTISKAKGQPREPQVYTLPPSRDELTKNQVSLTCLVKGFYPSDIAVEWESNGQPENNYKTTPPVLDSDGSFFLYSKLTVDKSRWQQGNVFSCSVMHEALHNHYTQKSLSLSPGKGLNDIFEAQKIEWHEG",
  "test": "BLI, ACE2-Fc on tips, RBD in solution",
  "data": [
    {"binder": "B1", "values": [
      {"measurement": "Kd", "result": 22, "unit": "nM"}
    ]}
  ]
}
